The experiment addresses actin from chicken skeletal muscle (filamentous) (chicken) (UniProt P68139).
For “Drosophila melanogaster indirect flight muscle myosin subfragment 1, converter mutant R759E (domain or fragment)”, the Km for actin of the actin-activated Mg2+-ATPase (Michaelis-Menten fit) came out at 4.99 µM.
“Drosophila melanogaster indirect flight muscle myosin subfragment 1, double mutant R759E/N509K (domain or fragment)”: the Km for actin of the actin-activated Mg2+-ATPase (Michaelis-Menten fit) was 3.58 µM.
For “Drosophila melanogaster indirect flight muscle myosin subfragment 1, wild type (domain or fragment)” the value was 5.77 µM.

These data come from paper PMC4722456.
